Legend:
Type in all cases: cell-based, E. coli
glyoxylic acid = assay: HACS screening, glyoxylic acid-C1 condensation (resting cells), tartronic acid; details: 5 mM glyoxylic acid and 20 mM formate; 1 hour
From the text: (§1) To implement the C1 elongation pathway for tartronic acid production in vivo, we engineered vectors to independently control expression of various HACS candidates and the acyl-CoA transferase from Clostridium aminobutyricum (CaAbfT), with HACS under control of the IPTG-inducible T7 promoter in pCDFDuet-1 and CaAbfT under control of a cumate-inducible T5 promoter in pETDuet-1. As a host for these vectors, we used an engineered strain of E. coli based on MG1655(DE3) with knockouts for formaldehyde (ΔfrmA) and formate (ΔfdhF ΔfdnG ΔfdoG) oxidation as well as for glycolate utilization (ΔglcD).
In vivo product synthesis was conducted using M9 minimal media (6.78 g/L Na2HPO4, 3 g/L KH2PO4, 1 g/L NH4Cl, 0.5 g/L NaCl, 2 mM MgSO4, 100 μM CaCl2), and 15 μM thiamine-HCl) unless otherwise stated. Cells were initially grown in 96-deep well plates (USA Scientific, Ocala, FL) containing 0.2 mL of the above media further supplemented with 20 g/L glycerol, 10 g/L tryptone, and 5 g/L yeast extract. […]
Cells from the above pre-cultures were then centrifuged (4000 rpm, 22° C.), washed with the above minimal media without any carbon source, and resuspended with 1 mL of above minimal media containing indicated amounts of carbon source. […] After incubation at 30° C. for 1 hour, the cells were pelleted by centrifugation and the media was analyzed using HPLC.

Succinic semialdehyde = assay: HACS screening, succinic semialdehyde-C1 condensation (resting cells), 2-hydroxyglutaric acid; details: 20 mM succinic semialdehyde and 20 mM formate, 3 hours
From the text: as §1, with “2-hydroxyglutaric” for “tartronic”
(§2) In vivo product synthesis was conducted using M9 minimal media (6.78 g/L Na2HPO4, 3 g/L KH2PO4, 1 g/L NH4Cl, 0.5 g/L NaCl, 2 mM MgSO4, 100 μM CaCl2), and 15 μM thiamine-HCl) unless otherwise stated. Cells were initially grown in 96-deep well plates (USA Scientific, Ocala, FL) containing 0.5 mL of the above media further supplemented with 20 g/L glycerol, 10 g/L tryptone, and 5 g/L yeast extract. […]
(§3) Cells from the above pre-cultures were then centrifuged (4000 rpm, 22° C.), washed with the above minimal media without any carbon source, and resuspended with 1 mL of above minimal media containing indicated amounts of carbon source. […] After incubation at 30° C. for 3 hours, the cells were pelleted by centrifugation and the media was analyzed using HPLC.

Isovaleraldehyde = assay: HACS screening, isovaleraldehyde-C1 condensation (resting cells), leucic acid; details: 20 mM isovaleraldehyde and 20 mM formate, 3 hours
From the text: (§4) To implement the C1 elongation pathway for leucic acid production in vivo, we engineered vectors to independently control expression of various HACS candidates and the acyl-CoA transferase from Clostridium aminobutyricum (CaAbfT), with HACS under control of the IPTG-inducible T7 promoter in pCDFDuet-1 and CaAbfT under control of a cumate-inducible T5 promoter in pETDuet-1. As a host for these vectors, we used an engineered strain of E. coli based on MG1655(DE3) with knockouts for formaldehyde (ΔfrmA) and formate (ΔfdhF ΔfdnG ΔfdoG) oxidation as well as for glycolate utilization (ΔglcD).
as §2, §3

Methional = assay: HACS screening, methional-C1 condensation (resting cells), desmeninol; details: 20 mM methional and 20 mM formate, 3 hours
From the text: as §4, §2, §3

B1: RuHACL: Engineered 2-hydroxyphytanoyl-CoA lyase [Rhodospirillales bacterium URHD0017], SEQ ID NO: 1 (protein)
chain: MSEVDGATLIARSLKQQGIDHLFGVVGFPITAIAAAAQKEGVAYLGMRNEQSAAYAAAAYGYLTGRPGAAVVVTGPGVVHGLSGLANAQQNCWPMILIGGASETYRGGMGAFQEERQVLIASPFCKFAHGIESVARIPFYVEMATRNAIYGRPGATYLDMPDDIIRGTCETDKIAQAERVPEAPRSVAPAENVEAALDLLEKAQRPLVLLGKGMAWSRGEDEVRAFIERTQVPFVRSPMGKGVMPDDHPLSASAARTLALQQADVIFLMGARLNWIFHFGLPPRYAKDVKVIQLDIAPEEIGHNKPTEVALVGDGKAIMAQLNKALVNRQWFHPKDTPWRQALTKKAAENVATIKPQVDDDQGPAGYYRALRDVAAWMPKNAILSAEGANTMDIGLTQLASSNARSVLNAGTYGTMGVGLGQAIAAAVSDPSRPVIHLSGDSAIGFSGMEMETLVRYNLPVKIVVLNNGGIGPGMPEIPENPMFNLKPNALIYGARYDKVMEAFGGKGIFVKEPKDIRKALDEAMAFKGPALVNVVLSQGSTRKAQQFAWHS
modifications: Rhodospirillales bacterium URHD0017 engineered 2-hydroxyphytanoyl-CoA lyase
tartronic acid productivity of best candidate (glyoxylic acid): up to 13 μM/hr per OD600 | Product flux, substrate Succinic semialdehyde, product 2-hydroxyglutarate (Succinic semialdehyde): 15.2 μM/OD/h | Product flux, substrate Isovaleraldehyde, product Leucic acid (Isovaleraldehyde): 12.5 μM/OD/h | Product flux, substrate Methional, product Desmeninol (Methional): 20.0 μM/OD/h

Reference: patent US20250369024A1, “Acyloin Condensation Reactions, Enzymes, and Products Thereof” (Mojia Biotech Pte. Ltd., priority 2023, published 2025)
